First the molecules themselves.
B1: TPR t1 (parent)
chain: GACCAAUCUGCCCUCAGAGCUCGAGAACAUCUUCGGAUGCAGAGGAGGCAGGCUUCGGUGGCGCGAUAGCGCCAACGUCCUCAACCUCCAAUGCAUCCCACCACAUGAUGAUGCCUGAAGAGCCUUGGUUUUUUG

Variants of B1 are the subject of the series. Briefly: polymerase ribozyme fitness, log enrichment relative to wild type (log ratio); higher = more active; in vitro selection for triplet polymerase activity. The method, boiled down:
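A heterodimeric triplet polymerase ribozyme had each of its subunits mutagenized by PCR into a library, which was transcribed. One round of in vitro selection, done in triplicate, annealed each library with a biotinylated primer, its partner subunit and triplets, then incubated it frozen at −7 °C before gel excision of extended constructs, streptavidin-bead capture and RT-PCR. Fitness is the logarithm of genotype enrichment relative to wild-type enrichment, based on Illumina sequencing of inputs and outputs and inverse-variance-weighted replicate averages. A base-2 logarithm is used, and genotypes were kept only with ≥10 input reads and ≥1 read per output.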
Take GACCAAUCUGCCCUCAGAGCUCGAGAACAUCUUCGGAUGCAGAGGAGGCAGGCUUCGGUGGCGCGAUAGCGCCAACGUACUCAACCUCCAAUGCAUCCCACCACAUGAUGACGCCUGAAGAGCCUUAGUUUUUUG [C79A U112C G127A]: the “polymerase ribozyme fitness (log ratio)” value was -1.43. Consider GACCAAUCUGCCCUCAGAGCUCGAGAACAUCUUCGGAUGCAGAGGAGGCAGGCUUCGGUGGCGCGAUAGCGCCAACGGCCUCAACCUCCAAUGCAUCCCACCACAUGAUGAUGCCUGAAGAGCCUUGGUGUUUUG [U78G U130G], for which the “polymerase ribozyme fitness (log ratio)” value was -0.347.

Turning to GACCAAUCUGCCCUCAGAGCUCGAGAACAUCUUCGGAUGCAGAGGAGGCAGGCUUCGGUGGCGCGAUAGCGCCAACGGCCUCAACCUCCAAUGCAUCCCACCACAUGAUGAUGCCCGAAGAGCCUUGGUUUUAUG [U78G U116C U133A], the “polymerase ribozyme fitness (log ratio)” value is -0.304. Regarding GACCAAUCUGCCCUCAGAGCUCGAGAACAUCUUCGGAUGCAGAGGAGGCAGGCUUCGGUGGCGCGAUAGCGCCAACGUACUCAACCUCCAAUGCAUCCCAUCACAUGAUGAUGCCUGAAGAGCCUUGGUUUUUUG [C79A C101U], the “polymerase ribozyme fitness (log ratio)” value is -1.4. In the case of GACCAAUCUGCCCUCAGAGCUCGAGAACAUCUUCGGAUGCAGAGGAGGCAGGCUUCGGUGGCGCGAUAGCGCCAACGUACUCAACCUCCAAUGCAUCCCACCACAUGAUGAUCCCUGAAGAGCCUUGGUUUUUUG [C79A G113C], the “polymerase ribozyme fitness (log ratio)” value is -3.64. On to GACCAAUCUGCCCUCAGAGCUCGAGAACAUCUUCGGAUGCAGAGGAGGCAGGCUUCGGUGGCGCGAUAGCGCCAACGUACUCAACCUCCAAUGCGUCCCAUCACAUGAUGAUGCCUGAAGAGUCUUGGUUUUUUG [C79A A95G C101U C123U], for which the “polymerase ribozyme fitness (log ratio)” value was -4.17. As for GACCAAUCUGCCCUCAGAGCUCGAGAACAUCUUCGGAUGCAGAGGAGGCAGGCUUCGGUGGCGCGAUAGCGCCAACGUACUCAACCUUCAAUGCAUCCCAUCACAUGAUGAUGCCUGAAGAGCCUUGGUUUUUUG [C79A C88U C101U], the figure is -0.735; as for GACCAAUCUGCCCUCAGAGCUCGAGAACAUCUUCGGAUGCAGAGGAGGCAGGCUUCGGUGGCGCGAUAGCGCCAACGUACUCAAUCUCCAAUGCAUCCCACCACAUGAUGAUGCCUGAAGAGCCUUGGUUUUUUG [C79A C85U], -2.34. For GACCAAUCUGCCCUCAGAGCUCGAGAACAUCUUCGGAUGCAGAGGAGGCAGGCUUCGGUGGCGCGAUAGCGCCAACGUGCUCAAACUCCAAUGCAUCCCACCACAUGAUGAUGCCUGAAGAGCCUUGGUUUUUUG [C79G C85A], the “polymerase ribozyme fitness (log ratio)” value is -3.62.

As for GACCAAUCUGCCCUCAGAGCUCGAGAACAUCUUCGGAUGCAGAGGAGGCAGGCUUCGGUGGCGCGAUAGCGCCAACGUGCUCAAGCUCCAAUGCAUCCCACCACAUGAUGAUGCCUGAAGAGCCUUGGUUUUUUG [C79G C85G], the “polymerase ribozyme fitness (log ratio)” value is -3.02. Regarding GACCAAUCUGCCCUCAGAGCUCGAGAACAUCUUCGGAUGCAGAGGAGGCAGGCUUCGGUGGCGCGAUAGCGCCAACGGCCUCAACCUCCAAUGCAACCCACCACAUGAUGAUGCCUGAAGAGCGUUGGUUUUUUG [U78G U96A C124G], the “polymerase ribozyme fitness (log ratio)” value worked out at 1.43.

For the variant GACCAAUCUGCCCUCAGAGCUCGAGAACAUCUUCGGAUGCAGAGGAGGCAGGCUUCGGUGGCGCGAUAGCGCCAACGUACUCAACCUCCAAUGCAUCCCACCACAUAAUGAUGCCUUAAGAGCCUUGGUUUUUUG [C79A G107A G117U], the “polymerase ribozyme fitness (log ratio)” value is -6.98.

For the variant GACCAAUCUGCCCUCAGAGCUCGAGAACAUCUUCGGAUGCAGAGGAGGCAGGCUUCGGUGGCGCGAUAGCGCCAACGUGCUUAACCUCCAAUGCAUCCCACCACAUGAUGAUGCCUGAAGAGCCUUGGUAUUUUG [C79G C82U U130A], the “polymerase ribozyme fitness (log ratio)” value was -2.13.

As for GACCAAUCUGCCCUCAGAGCUCGAGAACAUCUUCGGAUGCAGAGGAGGCAGGCUUCGGUGGCGCGAUAGCGCCAACGUGCUCAACCUCAAAUGCAUCCCACCACAUGAUGAUGCCUGAAGAGCCUUGGUUUUUUG [C79G C89A], the “polymerase ribozyme fitness (log ratio)” value is -5.03. For the variant GACCAAUCUGCCCUCAGAGCUCGAGAACAUCUUCGGAUGCAGAGGAGGCAGGCUUCGGUGGCGCGAUAGCGCCAACGUACUCAACCUCCAAUGCAUCCCACCACACGAUGAUGCCUGAAGAGCCUUGGUUUUUUG [C79A U106C], the “polymerase ribozyme fitness (log ratio)” value was -0.96. For the variant GACCAAUCUGCCCUCAGAGCUCGAGAACAUCUUCGGAUGCAGAGGAGGCAGGCUUCGGUGGCGCGAUAGCGCCAACGGCCUCAACCUCCAAUGCAUCCCACCACAUGAAGAUGCCUGAAGAGCCUUGGUUUUUUG [U78G U109A], the “polymerase ribozyme fitness (log ratio)” value was -6.21. As for GACCAAUCUGCCCUCAGAGCUCGAGAACAUCUUCGGAUGCAGAGGAGGCAGGCUUCGGUGGCGCGAUAGCGCCAACGUACUCAACCUCCAAUGCAUCCCACCACAUGAUGAUGCCUGAAGAGCCUUGGAUUUUUG [C79A U129A], the figure is -2.44; as for GACCAAUCUGCCCUCAGAGCUCGAGAACAUCUUCGGAUGCAGAGGAGGCAGGCUUCGGUGGCGCGAUAGCGCCAACGUACUCAACCUCCAAUGCUUCCCACCACAUGAUGAUGCCUGAAGAGCCUUGGUUUUUUG [C79A A95U], -1.9; as for GACCAAUCUGCCCUCAGAGCUCGAGAACAUCUUCGGAUGCAGAGGAGGCAGGCUUCGGUGGCGCGAUAGCGCCAACGUGCUCAACCUCUAAUGCAUCCCACCACAUGAUGAAGCCUGAAGAGCCUUGGUUUUUUG [C79G C89U U112A], -2.07. Regarding GACCAAUCUGCCCUCAGAGCUCGAGAACAUCUUCGGAUGCAGAGGAGGCAGGCUUCGGUGGCGCGAUAGCGCCAACGUGCUCGACCUCGAAUGCAUCCCACCACAUGAUGAUGCCUGAAGAGCCUUGGUUUUUUG [C79G A83G C89G], the “polymerase ribozyme fitness (log ratio)” value is -3.62. Regarding GACCAAUCUGCCCUCAGAGCUCGAGAACAUCUUCGGAUGCAGAGGAGGCAGGCUUCGGUGGCGCGAUAGCGCCAACGUACUCAACCUCCAAUGAAUCCCACCACAUGAUGAUGCCUGAAGAGCCUUGGUUUUUUG [C79A C94A], the “polymerase ribozyme fitness (log ratio)” value is -2.38.
